{
  "source": "paper PMC12102759",
  "about": "(Protein Science : A Publication of the Protein Society, 2025)",
  "conditions_in_all_cases": "both partners purified",
  "key": {"[1]": {"target": "T1, talin-1 phosphotyrosine binding (TLN1 PTB) domain (human, UniProt Q9Y490 309-401)", "T1 construct": "source: E. coli BL21 (DE3), purified (Ni Sepharose, tag cleaved with HRV 3C protease)", "experiment": "fluorescence polarisation; displacement: unlabelled peptide in serial dilution added to FITC-labelled probe peptide with the protein at 4x the KD value; 50 mM KPO4 pH 7.5; triplicates; sigmoidal dose-response fit"}, "[2]": {"target": "SARS-CoV-2 NSP3 UBl1 domain (SARS-CoV-2, UniProt P0DTD1 819-925)", "experiment": "fluorescence polarisation"}, "[3]": {"target": "SARS-CoV-2 NSP3 SUD-M domain (SARS-CoV-2, UniProt P0DTD1 1356-1493)", "experiment": "fluorescence polarisation"}, "[4]": {"target": "G3BP1 NTF2-like domain (1–139), tag cleaved, for FP (human, UniProt Q13283 1-139)", "sequence (Q13283 1-139)": "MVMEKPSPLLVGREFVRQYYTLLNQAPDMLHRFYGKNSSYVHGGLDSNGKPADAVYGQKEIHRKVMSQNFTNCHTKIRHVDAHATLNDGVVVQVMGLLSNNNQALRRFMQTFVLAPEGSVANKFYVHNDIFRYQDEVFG", "experiment": "fluorescence polarisation"}, "[5]": {"target": "SARS-CoV-2 non-structural protein 9 (NSP9) (SARS-CoV-2, UniProt P0DTD1 4141-4253)", "experiment": "fluorescence polarisation"}, "[6]": {"target": "talin-1 phosphotyrosine binding (TLN1 PTB) domain (human, UniProt Q9Y490 309-401)", "experiment": "fluorescence polarisation; saturation (direct binding): human bait protein in serial dilution added to 10 nM-master-mix FITC-labeled probe peptide; 50 mM KPO4 pH 7.5, DTT; triplicates; fit to a quadratic equation"}, "[7]": {"target": "T2, talin‐1 PTB domain (309–401), tag cleaved, for FP (human, UniProt Q9Y490 309-401)", "T2 construct": "also called TLN1 PTB; source: E. coli BL21 (DE3), purified (Ni Sepharose, HRV 3C cleavage)", "T2 sequence (Q9Y490 309-401)": "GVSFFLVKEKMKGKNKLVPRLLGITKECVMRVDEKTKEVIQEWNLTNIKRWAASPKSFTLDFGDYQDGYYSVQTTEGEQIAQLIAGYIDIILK", "experiment": "fluorescence polarisation; human domains; saturation with FITC-labelled probe peptide or displacement by unlabelled peptide; 50 mM KPO4 pH 7.5, DTT; triplicates; the text does not tell which of the two gave each KD"}, "[8]": {"target": "SARS-CoV-2 NSP3 ADRP domain (SARS-CoV-2, UniProt P0DTD1 1023-1192)", "experiment": "fluorescence polarisation"}},
  "note": "No end group written: not given here. *: point of attachment. FITC = O=C1OC2(c3ccc(O)cc3Oc3cc(O)ccc32)c2ccc(NC(=S)*)cc21",
  "data": [
    {"binder": "Ac-LADLIFTDSKLYIPLE-NH2", "note": "[TPTE2 wt peptide 92-107]", "values": [
      {"measurement": "IC50", "setting": "[1]", "result": 15, "unit": "µM"}
    ]},
    {"binder": "Ac-LADLIFTDSKLYAPLE-NH2", "note": "[TPTE2_I104A peptide 92-107]", "values": [
      {"measurement": "IC50", "setting": "[1]", "result": 55, "unit": "µM"}
    ]},
    {"binder": "Ac-LADLIYTDSKLYIPLE-NH2", "note": "[TPTE2_F97Y peptide 92-107]", "values": [
      {"measurement": "IC50", "setting": "[1]", "result": 440, "unit": "µM"}
    ]},
    {"binder": "Ac-LADLIFTDNKLYIPLE-NH2", "note": "[TPTE2_S100N peptide 92-107]", "values": [
      {"measurement": "IC50", "setting": "[1]", "result": 5.2, "unit": "µM"}
    ]},
    {"binder": "Ac-LADLIWTDSKLYIPLE-NH2", "note": "[TPTE2_F97W peptide 92-107]", "values": [
      {"measurement": "IC50", "setting": "[1]", "result": 0.4, "unit": "µM"}
    ]},
    {"binder": "Ac-LADLIFTDSKLWIPLE-NH2", "note": "[TPTE2_Y103W peptide 92-107]", "values": [
      {"measurement": "IC50", "setting": "[1]", "result": 66, "unit": "µM"}
    ]},
    {"binder": "Ac-LADLIFTDSALYIPLE-NH2", "note": "[TPTE2_K101A peptide 92-107]", "values": [
      {"measurement": "IC50", "setting": "[1]", "result": 45, "unit": "µM"},
      {"measurement": "Kd", "setting": "[1]", "result": 15, "unit": "µM"}
    ]},
    {"binder": "Ac-LADLIFTDSKLYLPLE-NH2", "note": "[TPTE2_I104L peptide 92-107]", "values": [
      {"measurement": "IC50", "setting": "[1]", "result": 14, "unit": "µM"},
      {"measurement": "Kd", "setting": "[1]", "result": 4.5, "unit": "µM"}
    ]},
    {"binder": "SDEGALLDQLYLALRN (FITC on the N-terminus)", "note": "[FITC-labelled NCOA2 peptide 1074-1089]", "values": [
      {"measurement": "Kd", "setting": "[2]", "result": 67, "unit": "µM"}
    ]},
    {"binder": "QFTEEDLHFVLYGVTPY", "note": "[PRDM14 wt peptide 196-211]", "values": [
      {"measurement": "IC50", "setting": "[3]", "result": 400, "unit": "µM"}
    ]},
    {"binder": "PSDEGALLDQLYLALR", "note": "[NCOA2 wt peptide 1073-1088]", "values": [
      {"measurement": "IC50", "setting": "[2]", "result": 139, "unit": "µM"}
    ]},
    {"binder": "APRITFGGPSDSTGS", "note": "[wildtype SARS‐CoV‐2 N_(12–26) peptide]", "values": [
      {"measurement": "Kd", "setting": "[4]", "result": 2.3, "unit": "µM"}
    ]},
    {"binder": "AEGIDIGEMPSYDLVL (FITC on the N-terminus, NKRF residues 8-23)", "note": "[FITC-labelled NKRF peptide 8-23]", "values": [
      {"measurement": "Kd", "setting": "[5]", "result": 15.5, "unit": "µM"}
    ]},
    {"binder": "{FITC}-FPTDERSWVYSPLHYS (source: synthetic peptide (GeneCust))", "note": "[FITC-labeled PIP5K1C probe peptide FITC-FPTDERSWVYSPLHYS]", "values": [
      {"measurement": "Kd", "setting": "[6]", "result": 0.065, "unit": "µM"}
    ]},
    {"binder": "LADLIFTDSKLYIPLE (source: synthetic peptide (GeneCust))", "note": "[wild‐type TPTE2_(92‐107) peptide]", "values": [
      {"measurement": "Kd", "setting": "[7]", "result": 4.5, "unit": "µM"}
    ]},
    {"binder": "LADLIFTDSKLWIPLE (source: synthetic peptide (GeneCust))", "note": "[TPTE2 Y103W peptide]", "values": [
      {"measurement": "Kd", "setting": "[7]", "result": 22, "unit": "µM"}
    ]},
    {"binder": "LADLIFTDSKLYAPLE (source: synthetic peptide (GeneCust))", "note": "[TPTE2 I104A peptide]", "values": [
      {"measurement": "Kd", "setting": "[7]", "result": 18, "unit": "µM"}
    ]},
    {"binder": "LADLIFTDSKLYLPLE (source: synthetic peptide (GeneCust))", "note": "[TPTE2 I104L peptide]", "values": [
      {"measurement": "binding result", "setting": "[7]", "result": "binds"}
    ]},
    {"binder": "LADLIWTDSKLYIPLE (source: synthetic peptide (GeneCust))", "note": "[TPTE2_(92‐107) F97W peptide]", "values": [
      {"measurement": "Kd", "setting": "[7]", "result": 0.1, "unit": "µM"}
    ]},
    {"binder": "LADLIYTDSKLYIPLE (source: synthetic peptide (GeneCust))", "note": "[TPTE2_(92‐107) F97Y peptide]", "values": [
      {"measurement": "Kd", "setting": "[7]", "result": 150, "unit": "µM"}
    ]},
    {"binder": "LADLIFTDNKLYIPLE (source: synthetic peptide (GeneCust))", "note": "[TPTE2_(92‐107) S100N peptide]", "values": [
      {"measurement": "Kd", "setting": "[7]", "result": 1.7, "unit": "µM"}
    ]},
    {"binder": "STYLHPLSELLGIPLD", "note": "[MBOAT1 wt peptide 17-32]", "values": [
      {"measurement": "IC50", "setting": "[8]", "result": 175, "unit": "µM"}
    ]},
    {"binder": "GSTYLHPLSELLGIPL (FITC on the N-terminus)", "note": "[FITC-labelled MBOAT1 peptide 16-31]", "values": [
      {"measurement": "Kd", "setting": "[8]", "result": 50.8, "unit": "µM"}
    ]},
    {"binder": "QGAWLGAPEPWEPLLD", "note": "[NOTCH4 wt peptide 1606-1621]", "values": [
      {"measurement": "IC50", "setting": "[5]", "result": 205, "unit": "µM"}
    ]},
    {"binder": "FTEEDLHFVLYGVTPS (FITC on the N-terminus)", "note": "[FITC-labelled PRDM14 peptide 197-212]", "values": [
      {"measurement": "Kd", "setting": "[3]", "result": 19, "unit": "µM"}
    ]}
  ]
}
